Reference: the supplement of paper PMC10201428
± gives the standard deviation of the averaged measurements.

What was measured:
[1] = test system: VchCAST RNA-guided transposition machinery (E. coli BL21(DE3) host, lacZ target); experiment: relative integration efficiency (T-RL orientation) vs wild-type transposon end (log2 (normalized fold change)); transposon end mutated: right end (5 bp flank + 75 bp right end); higher = more efficient transposition
Outline: (§1)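 Barcoded pools of 1549 left-end or 1849 right-end transposon variants were cloned into a pUC57 mini-transposon donor. Each pool was co-transformed with a T7-driven effector plasmid (CRISPR array, tniQ-cas8-cas7-cas6, tnsA-tnsB-tnsC) into E. coli BL21(DE3) and plated with 0.1 mM IPTG at 37°C for 18 h. Input plasmids and genomic integration junctions were PCR-amplified and Illumina-sequenced, with two biological output replicates and four wild-type barcodes as reference. Relative integration efficiency is output/input barcode abundance fold change, normalised to wild-type barcodes and log-transformed.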

[2] = test system: VchCAST RNA-guided transposition machinery (E. coli BL21(DE3) host, lacZ target); experiment: relative integration efficiency (T-LR orientation) vs wild-type transposon end (log2 (normalized fold change)); transposon end mutated: right end (5 bp flank + 75 bp right end); higher = more efficient transposition
Outline: as §1

ACATTTGTTGATACAACCATAAAATGATAATTAACACCCATAAATTGATAATTATCAACAAACGCCCGGTCGCGGTACTCTGATCATAGTCAGACCAACATTGCTACGACCCGTATTCGCACCGACA
relative integration efficiency (log2) [1]: -0.721 ± 0.29
relative integration efficiency (log2) [2]: 1.67 ± 0.2

ACATTTGTTGATACAACCATAAAATGATAATTAACACCCATAAATTGATAATTATCACACCCATAAATTGATATTGCCTCTGATCATAGTCAGACCAACATTGCTACGACCCGTATTCGCACCGACA
relative integration efficiency (log2) [1]: -0.572 ± 0.11
relative integration efficiency (log2) [2]: -0.437 ± 0.21

ACATTTGTTGATACAACCATAAAATGATAATTAACCCCATAAATTGATAATTATCACACCCATAAATTGATATTGCCTCTGATCATAGTCAGACCAACATTGCTACGACCCGTATTCGCACCGACAC
relative integration efficiency (log2) [1]: -0.822 ± 0.075
relative integration efficiency (log2) [2]: -0.881 ± 0.17

ACATTTGTTGATACAACCATAAAATGATAATTAATAACACCCATAAATTGATAATTATCAACAAACGCCCGGTCGCGGTACTCTGATCATAGTCAGACCAACATTGCTACGACCCGTATTCGCACCG
relative integration efficiency (log2) [1]: -2.52 ± 0.17
relative integration efficiency (log2) [2]: 0.892 ± 0.16

ACATTTGTTGATACAACCATAAAATGATAATTAATAACACCCATAAATTGATAATTATCACACCCATAAATTGATATTGCCTCTGATCATAGTCAGACCAACATTGCTACGACCCGTATTCGCACCG
relative integration efficiency (log2) [1]: -3.16 ± 0.3
relative integration efficiency (log2) [2]: 0.728 ± 0.12

ACATTTGTTGATACAACCATAAAATGATAATTAATAATCACCCATAAATTGATAATTATCAACAAACGCCCGGTCGCGGTACTCTGATCATAGTCAGACCAACATTGCTACGACCCGTATTCGCACC
relative integration efficiency (log2) [1]: -2.77 ± 0.31
relative integration efficiency (log2) [2]: 0.619 ± 0.018

ACATTTGTTGATACAACCATAAAATGATAATTAATAATCACCCATAAATTGATAATTATCACACCCATAAATTGATATTGCCTCTGATCATAGTCAGACCAACATTGCTACGACCCGTATTCGCACC
relative integration efficiency (log2) [1]: -2.77 ± 0.17
relative integration efficiency (log2) [2]: 0.894 ± 0.13

ACATTTGTTGATACAACCATAAAATGATAATTAATAATTACACCCATAAATTGATAATTATCAACAAACGCCCGGTCGCGGTACTCTGATCATAGTCAGACCAACATTGCTACGACCCGTATTCGCA
relative integration efficiency (log2) [1]: -2.18 ± 0.28
relative integration efficiency (log2) [2]: 1.37 ± 0.24

ACATTTGTTGATACAACCATAAAATGATAATTAATAATTACACCCATAAATTGATAATTATCACACCCATAAATTGATATTGCCTCTGATCATAGTCAGACCAACATTGCTACGACCCGTATTCGCA
relative integration efficiency (log2) [1]: -3.12 ± 0.2
relative integration efficiency (log2) [2]: 0.0363 ± 0.21

ACATTTGTTGATACAACCATAAAATGATAATTAATAATTATCACCCATAAATTGATAATTATCAACAAACGCCCGGTCGCGGTACTCTGATCATAGTCAGACCAACATTGCTACGACCCGTATTCGC
relative integration efficiency (log2) [1]: -3.56 ± 0.2
relative integration efficiency (log2) [2]: -0.012 ± 0.0046

ACATTTGTTGATACAACCATAAAATGATAATTAATAATTATCACCCATAAATTGATAATTATCACACCCATAAATTGATATTGCCTCTGATCATAGTCAGACCAACATTGCTACGACCCGTATTCGC
relative integration efficiency (log2) [1]: -3.32 ± 0.2
relative integration efficiency (log2) [2]: -0.503 ± 0.38

ACATTTGTTGATACAACCATAAAATGATAATTAATAATTATTCACCCATAAATTGATAATTATCAACAAACGCCCGGTCGCGGTACTCTGATCATAGTCAGACCAACATTGCTACGACCCGTATTCG
relative integration efficiency (log2) [1]: -2.63 ± 0.4
relative integration efficiency (log2) [2]: 0.337 ± 0.11

ACATTTGTTGATACAACCATAAAATGATAATTAATAATTATTCACCCATAAATTGATAATTATCACACCCATAAATTGATATTGCCTCTGATCATAGTCAGACCAACATTGCTACGACCCGTATTCG
relative integration efficiency (log2) [1]: -3.976 ± 0.019
relative integration efficiency (log2) [2]: -1.92 ± 0.46

ACATTTGTTGATACAACCATAAAATGATAATTAATAATTATTTACACCCATAAATTGATAATTATCAACAAACGCCCGGTCGCGGTACTCTGATCATAGTCAGACCAACATTGCTACGACCCGTATT
relative integration efficiency (log2) [1]: -2.54 ± 0.21
relative integration efficiency (log2) [2]: 0.163 ± 0.01

ACATTTGTTGATACAACCATAAAATGATAATTAATAATTATTTACACCCATAAATTGATAATTATCACACCCATAAATTGATATTGCCTCTGATCATAGTCAGACCAACATTGCTACGACCCGTATT
relative integration efficiency (log2) [1]: -2.85 ± 0.13
relative integration efficiency (log2) [2]: -4.57 ± 0.14
